Source: paper PMC7083075 (Cell, 2019)

Target: T1, hKCNQ1EM (human KCNQ1, residues 76-620) (human, UniProt P51787-1 76-620)
T1 sequence (looked up): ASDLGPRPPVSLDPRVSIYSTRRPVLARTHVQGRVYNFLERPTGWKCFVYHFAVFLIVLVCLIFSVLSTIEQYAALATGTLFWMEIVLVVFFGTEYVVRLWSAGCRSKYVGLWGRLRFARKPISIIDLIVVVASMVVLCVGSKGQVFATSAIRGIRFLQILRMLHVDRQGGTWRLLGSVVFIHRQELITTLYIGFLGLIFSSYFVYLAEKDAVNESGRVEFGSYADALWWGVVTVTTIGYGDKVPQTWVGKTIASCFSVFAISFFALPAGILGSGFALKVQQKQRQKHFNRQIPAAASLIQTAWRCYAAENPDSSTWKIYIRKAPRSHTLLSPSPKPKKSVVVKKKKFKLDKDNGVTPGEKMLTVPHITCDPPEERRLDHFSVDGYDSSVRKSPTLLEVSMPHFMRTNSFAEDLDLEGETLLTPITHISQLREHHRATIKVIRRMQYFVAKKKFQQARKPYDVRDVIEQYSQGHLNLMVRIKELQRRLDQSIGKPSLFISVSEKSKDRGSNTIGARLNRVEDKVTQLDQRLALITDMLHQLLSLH
Test: cryo-EM structure

B1: KCNE3 (full-length human, N-terminal mCherry2) (natural protein, UniProt Q9Y6H6 1-103, looked up)
chain: METTNGTETWYESLHAVLKALNATLHSNLLCRPGPGLGPDNQTEERRASLPGRDDNSYMYILFVMFLFAVTVGSLILGYTRSRKVDKRSDPYHVYIKNRVSMI
  stoichiometry N: 4 KCNE3 per KCNQ1 tetramer
